# T1: FLAG-tagged HDAC7-K86AK88A (expressed in DO11.10 cells) (human, UniProt Q8WUI4 1-952)
# T1 construct: not shown: FLAG tag
# T1 sequence: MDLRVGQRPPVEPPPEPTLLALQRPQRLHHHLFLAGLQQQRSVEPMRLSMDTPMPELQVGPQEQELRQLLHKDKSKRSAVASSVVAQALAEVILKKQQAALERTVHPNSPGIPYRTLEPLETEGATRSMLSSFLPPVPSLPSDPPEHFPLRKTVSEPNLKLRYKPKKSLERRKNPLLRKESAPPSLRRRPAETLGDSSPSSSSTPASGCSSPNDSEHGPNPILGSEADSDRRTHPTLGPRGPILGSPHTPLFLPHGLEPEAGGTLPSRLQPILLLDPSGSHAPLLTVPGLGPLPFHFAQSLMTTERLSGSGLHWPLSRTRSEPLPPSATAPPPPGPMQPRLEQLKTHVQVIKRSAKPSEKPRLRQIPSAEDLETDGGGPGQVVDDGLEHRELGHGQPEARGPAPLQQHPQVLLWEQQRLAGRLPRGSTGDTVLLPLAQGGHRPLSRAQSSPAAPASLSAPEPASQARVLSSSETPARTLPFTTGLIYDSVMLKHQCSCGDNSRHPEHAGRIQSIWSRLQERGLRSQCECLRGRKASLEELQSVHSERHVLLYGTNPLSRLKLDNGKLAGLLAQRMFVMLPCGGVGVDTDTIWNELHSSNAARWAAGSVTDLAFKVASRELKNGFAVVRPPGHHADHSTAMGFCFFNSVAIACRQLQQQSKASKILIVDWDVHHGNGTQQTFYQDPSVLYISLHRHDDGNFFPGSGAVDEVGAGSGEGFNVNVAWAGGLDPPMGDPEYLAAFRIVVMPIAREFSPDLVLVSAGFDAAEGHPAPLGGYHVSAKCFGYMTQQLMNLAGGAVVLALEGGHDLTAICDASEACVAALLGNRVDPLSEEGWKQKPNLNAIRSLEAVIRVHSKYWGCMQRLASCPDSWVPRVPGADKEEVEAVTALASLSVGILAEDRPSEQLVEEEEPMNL
# T2: FLAG-tagged HDAC7-ΔMEF (expressed in DO11.10 cells) (human, UniProt Q8WUI4 1-952)
# T2 construct: not shown: FLAG tag
# T2 sequence: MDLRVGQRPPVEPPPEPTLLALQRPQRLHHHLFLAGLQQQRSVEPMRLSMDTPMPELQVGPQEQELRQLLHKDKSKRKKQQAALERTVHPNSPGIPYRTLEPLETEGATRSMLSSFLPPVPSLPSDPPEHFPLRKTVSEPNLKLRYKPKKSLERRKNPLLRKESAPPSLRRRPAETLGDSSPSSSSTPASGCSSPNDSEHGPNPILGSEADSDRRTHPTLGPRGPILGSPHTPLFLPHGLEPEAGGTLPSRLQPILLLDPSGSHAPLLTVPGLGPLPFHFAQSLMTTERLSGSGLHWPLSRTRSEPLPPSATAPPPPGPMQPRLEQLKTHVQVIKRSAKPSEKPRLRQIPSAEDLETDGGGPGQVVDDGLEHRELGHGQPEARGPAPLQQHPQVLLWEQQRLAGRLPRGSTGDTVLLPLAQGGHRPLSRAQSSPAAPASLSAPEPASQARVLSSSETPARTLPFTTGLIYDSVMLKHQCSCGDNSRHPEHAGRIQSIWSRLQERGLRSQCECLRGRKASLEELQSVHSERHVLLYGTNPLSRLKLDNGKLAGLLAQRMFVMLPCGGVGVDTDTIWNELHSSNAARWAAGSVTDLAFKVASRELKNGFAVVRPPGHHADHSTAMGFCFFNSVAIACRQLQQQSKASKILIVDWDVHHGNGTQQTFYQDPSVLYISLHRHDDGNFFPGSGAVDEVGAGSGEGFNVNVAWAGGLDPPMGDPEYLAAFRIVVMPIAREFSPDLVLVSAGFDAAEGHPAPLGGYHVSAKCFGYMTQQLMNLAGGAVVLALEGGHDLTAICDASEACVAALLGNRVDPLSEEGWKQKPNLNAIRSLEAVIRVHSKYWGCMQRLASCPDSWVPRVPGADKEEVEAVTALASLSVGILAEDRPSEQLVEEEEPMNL
# T3: endogenous HDAC3, O15379
# T3 chain: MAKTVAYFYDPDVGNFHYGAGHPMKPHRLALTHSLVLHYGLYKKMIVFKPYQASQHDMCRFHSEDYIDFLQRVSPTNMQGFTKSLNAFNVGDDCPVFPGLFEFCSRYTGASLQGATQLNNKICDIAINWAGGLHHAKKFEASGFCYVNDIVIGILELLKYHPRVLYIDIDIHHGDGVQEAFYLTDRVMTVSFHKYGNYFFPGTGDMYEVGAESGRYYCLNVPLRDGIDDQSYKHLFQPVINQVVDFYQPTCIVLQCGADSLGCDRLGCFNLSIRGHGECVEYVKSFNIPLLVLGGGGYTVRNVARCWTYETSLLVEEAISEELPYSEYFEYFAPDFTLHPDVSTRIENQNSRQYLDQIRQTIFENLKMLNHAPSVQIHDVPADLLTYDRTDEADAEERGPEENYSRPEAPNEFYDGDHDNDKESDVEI
# B1: endogenous HDAC3 (enzyme, UniProt O15379 1-428, looked up)
# chain: MAKTVAYFYDPDVGNFHYGAGHPMKPHRLALTHSLVLHYGLYKKMIVFKPYQASQHDMCRFHSEDYIDFLQRVSPTNMQGFTKSLNAFNVGDDCPVFPGLFEFCSRYTGASLQGATQLNNKICDIAINWAGGLHHAKKFEASGFCYVNDIVIGILELLKYHPRVLYIDIDIHHGDGVQEAFYLTDRVMTVSFHKYGNYFFPGTGDMYEVGAESGRYYCLNVPLRDGIDDQSYKHLFQPVINQVVDFYQPTCIVLQCGADSLGCDRLGCFNLSIRGHGECVEYVKSFNIPLLVLGGGGYTVRNVARCWTYETSLLVEEAISEELPYSEYFEYFAPDFTLHPDVSTRIENQNSRQYLDQIRQTIFENLKMLNHAPSVQIHDVPADLLTYDRTDEADAEERGPEENYSRPEAPNEFYDGDHDNDKESDVEI
# notes: SupT1 and 293 are human cell lines
# B2: GST-HDAC4(aa 612-1084) (enzyme, human, UniProt P56524 612-1084, looked up)
# chain: MEAAGIPVSFGGHRPLSRAQSSPASATFPVSVQEPPTKPRFTTGLVYDTLMLKHQCTCGSSSSHPEHAGRIQSIWSRLQETGLRGKCECIRGRKATLEELQTVHSEAHTLLYGTNPLNRQKLDSKKLLGSLASVFVRLPCGGVGVDSDTIWNEVHSAGAARLAVGCVVELVFKVATGELKNGFAVVRPPGHHAEESTPMGFCYFNSVAVAAKLLQQRLSVSKILIVDWDVHHGNGTQQAFYSDPSVLYMSLHRYDDGNFFPGSGAPDEVGTGPGVGFNVNMAFTGGLDPPMGDAEYLAAFRTVVMPIASEFAPDVVLVSSGFDAVEGHPTPLGGYNLSARCFGYLTKQLMGLAGGRIVLALEGGHDLTAICDASEACVSALLGNELDPLPEKVLQQRPNANAVRSMEKVMEIHSKYWRCLQRTTSTAGRSLIEAQTCENEEAETVTAMASLSVGVKPAEKRPDEEPMEEEPPL
# notes: range 612-1084; also called recombinant fusion protein corresponding to the catalytically active domain of HDAC4; not shown: glutathione-S-transferase (GST), fusion partner
# Columns and labels:
# [1] = target: T1, FLAG-tagged HDAC7-K86AK88A (expressed …); assay: anti-FLAG immunoprecipitation from DO11.10 polyclonal cell lines, endogenous MEF2D
# Description: (§1) For FLAG-tagged proteins, M2-agarose (Sigma) antibody was used at 15 μl/ml. For immunoprecipitation of endogenous HDAC7, anti-HDAC7 antiserum was used at approximately 10 μg/ml in combination with 20μ/ml of preblocked (10 mg/ml of bovine serum albumin) 50% protein G-Sepharose slurry (Amersham Pharmacia Biotech). […] Bound proteins were subjected to SDS-PAGE electrophoresis and Western blot analysis.
# (§2) After establishment of polyclonal cell lines, stably expressed protein were immunoprecipitated using an anti-FLAG antibody and assessed for binding to endogenous MEF2D.
# [2] = target: T2, FLAG-tagged HDAC7-ΔMEF (expressed in …); assay: as above
# Description: as §1, §2
# endogenous HDAC3 [3] = target: B1; assay: GST pull-down from SupT1 cell extracts, western blot
# Description: After incubation for 3 hours at 4° C. with rocking, reactions were washed three times in IPLS, three times in the same buffer but at 1 M NaCl, and two times in HD buffer (Fischle et al., supra). Pulldown reactions were split, and either processed for histone deacetylase activity assays or for western blotting. For pulldown reactions with ³⁵S-labeled proteins, cDNAs were transcribed and translated with the TNT reticulocyte system (Promega). The labeling reaction (5 μl) was incubated with GST fusion proteins in a total volume of 200 μl of GST buffer (20 mM Tris-HCl, pH 8.0, 150 mM KCl, 5 mM DTT, 2 mM EDTA, 10% glycerol, 0.5% non fat dry milk, 0.1% NP-40) for 1 h at 4° C. with rocking. Reactions were washed five times in the same buffer, and bound proteins were resolved on denaturing SDS-PAGE gels for analysis by autoradiography.
# After extensive washing, the bound material was tested for HDAC activity.
# GST-HDAC4(aa 612-1084) = target: B2; assay: repeated incubation of 293 or SupT1 extracts with the GST fusion, western blot of the depleted extract
# Description: (§3) Purity, as well as protein amount, was checked on SDS-PAGE gels stained with Coomassie Blue. […] After incubation for 3 hours at 4° C. with rocking, reactions were washed three times in IPLS, three times in the same buffer but at 1 M NaCl, and two times in HD buffer (Fischle et al., supra). Pulldown reactions were split, and either processed for histone deacetylase activity assays or for western blotting. For pulldown reactions with ³⁵S-labeled proteins, cDNAs were transcribed and translated with the TNT reticulocyte system (Promega). The labeling reaction (5 μl) was incubated with GST fusion proteins in a total volume of 200 μl of GST buffer (20 mM Tris-HCl, pH 8.0, 150 mM KCl, 5 mM DTT, 2 mM EDTA, 10% glycerol, 0.5% non fat dry milk, 0.1% NP-40) for 1 h at 4° C. with rocking. Reactions were washed five times in the same buffer, and bound proteins were resolved on denaturing SDS-PAGE gels for analysis by autoradiography.
# (§4) First, we examined the possibility that GS\tilde{T}HDAC fusion proteins recruit common factors from cellular extracts.
# endogenous HDAC3 [4] = target: B1; assay: cell-based or functional assay
# endogenous HDAC3, O15379 = target: T3, endogenous HDAC3, O15379
# endogenous HDAC1 = endogenous HDAC1 (UniProt Q13547 1-482); assay: repeated incubation of 293 or SupT1 extracts with the GST fusion, western blot of the depleted extract
# Sequence of endogenous HDAC1 (Q13547 whole entry, the tested form may be a part): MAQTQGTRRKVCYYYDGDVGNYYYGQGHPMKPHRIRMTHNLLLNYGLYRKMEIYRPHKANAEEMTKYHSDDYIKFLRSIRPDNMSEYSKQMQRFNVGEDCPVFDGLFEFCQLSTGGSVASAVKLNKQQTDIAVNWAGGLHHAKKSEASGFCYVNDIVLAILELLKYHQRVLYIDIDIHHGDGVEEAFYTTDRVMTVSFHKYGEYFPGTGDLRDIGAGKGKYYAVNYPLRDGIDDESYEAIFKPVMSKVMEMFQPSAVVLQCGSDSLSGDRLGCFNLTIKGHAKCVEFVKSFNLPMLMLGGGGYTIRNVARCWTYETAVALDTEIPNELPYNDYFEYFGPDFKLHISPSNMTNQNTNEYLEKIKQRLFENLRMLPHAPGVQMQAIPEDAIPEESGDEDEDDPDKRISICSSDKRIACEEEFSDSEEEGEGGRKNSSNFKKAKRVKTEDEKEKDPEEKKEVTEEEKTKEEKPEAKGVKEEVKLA
# Description: as §3, §4
binder,measurement,setting,value
"endogenous MEF2D of DO11.10 T-cell hybridoma cells (other, UniProt Q63943 1-514, looked up) MGRKKIQIQRITDERNRQVTFTKRKFGLMKKAYELSVLCDCEIALIIFNHSNKLFQYASTDMDKVLLKYTEYNEPHESRTNADIIETLRKKGFNGCDSPEPDGEDSLEQSPLLEDKYRRASEELDGLFRRYGSSVPAPNFAMPVTVPVSNQSSMQFSNPSSSLVTPSLVTSSLTDPRLLSPQQPALQRNSVSPGLPQRPASAGAMLGGDLNSANGACPSPVGNGYVSARASPGLLPVANGNSLNKVIPAKSPPPPTHNTQLGAPSRKPDLRVITSQGGKGLMHHLTEDHLDLNNAQRLGVSQSTHSLTTPVVSVATPSLLSQGLPFSSMPTAYNTDYQLPSAELSSLPAFSSPAGLALGNVTAWQQPQPPQQPQPPQPPQSQPQPPQPQPQQPPQQQPHLVPVSLSNLIPGSPLPHVGAALTVTTHPHISIKSEPVSPSRERSPAPPPPAVFPAARPEPGEGLSSPAGGSYETGDRDDGRGDFGPTLGLLRPAPEPEAEGSAVKRMRLDTWTLK",binding result,[1],no binding
same,binding result,[2],no binding
"GST-HDAC7(aa 487-912) (enzyme, not shown: glutathione-S-transferase (GST) of the pGEX4T1 vector (Pharmacia), N-terminal fusion partner) YDSVMLKHQCSCGDNSRHPEHAGRIQSIWSRLQERGLRSQCECLRGRKASLEELQSVHSERHVLLYGTNPLSRLKLDNGKLAGLLAQRMFVMLPCGGVGVDTDTIWNELHSSNAARWAAGSVTDLAFKVASRELKNGFAVVRPPGHHADHSTAMGFCFFNSVAIACRQLQQQSKASKILIVDWDVHHGNGTQQTFYQDPSVLYISLHRHDDGNFFPGSGAVDEVGAGSGEGFNVNVAWAGGLDPPMGDPEYLAAFRIVVMPIAREFSPDLVLVSAGFDAAEGHPAPLGGYHVSAKCFGYMTQQLMNLAGGAVVLALEGGHDLTAICDASEACVAALLGNRVDPLSEEGWKQKPNLNAIRSLEAVIRVHSKYWGCMQRLASCPDSWVPRVPGADKEEVEAVTALASLSVGILAEDRPSEQLVEEEEP",binding result,endogenous HDAC3 [3],no binding
B1,binding result,GST-HDAC4(aa 612-1084),binds
"HDAC7-FLAG (full-length human HDAC7 with C-terminal FLAG tag, expressed in cells) (protein) MDLRVGQRPPVEPPPEPTLLALQRPQRLHHHLFLAGLQQQRSVEPMRLSMDTPMPELQVGPQEQELRQLLHKDKSKRSAVASSVVKQKLAEVILKKQQAALERTVHPNSPGIPYRTLEPLETEGATRSMLSSFLPPVPSLPSDPPEHFPLRKTVSEPNLKLRYKPKKSLERRKNPLLRKESAPPSLRRRPAETLGDSSPSSSSTPASGCSSPNDSEHGPNPILGSEADSDRRTHPTLGPRGPILGSPHTPLFLPHGLEPEAGGTLPSRLQPILLLDPSGSHAPLLTVPGLGPLPFHFAQSLMTTERLSGSGLHWPLSRTRSEPLPPSATAPPPPGPMQPRLEQLKTHVQVIKRSAKPSEKPRLRQIPSAEDLETDGGGPGQVVDDGLEHRELGHGQPEARGPAPLQQHPQVLLWEQQRLAGRLPRGSTGDTVLLPLAQGGHRPLSRAQSSPAAPASLSAPEPASQARVLSSSETPARTLPFTTGLIYDSVMLKHQCSCGDNSRHPEHAGRIQSIWSRLQERGLRSQCECLRGRKASLEELQSVHSERHVLLYGTNPLSRLKLDNGKLAGLLAQRMFVMLPCGGVGVDTDTIWNELHSSNAARWAAGSVTDLAFKVASRELKNGFAVVRPPGHHADHSTAMGFCFFNSVAIACRQLQQQSKASKILIVDWDVHHGNGTQQTFYQDPSVLYISLHRHDDGNFFPGSGAVDEVGAGSGEGFNVNVAWAGGLDPPMGDPEYLAAFRIVVMPIAREFSPDLVLVSAGFDAAEGHPAPLGGYHVSAKCFGYMTQQLMNLAGGAVVLALEGGHDLTAICDASEACVAALLGNRVDPLSEEGWKQKPNLNAIRSLEAVIRVHSKYWGCMQRLASCPDSWVPRVPGADKEEVEAVTALASLSVGILAEDRPSEQLVEEEEPMNL",HDAC activity of HDAC7-FLAG immunoprecipitated from the cytoplasmic fraction of 293 cells,endogenous HDAC3 [4],3240 counts/min
same,HDAC activity of HDAC7-FLAG immunoprecipitated from the nuclear fraction of 293 cells,endogenous HDAC3 [4],14800 counts/min
same,"HDAC activity, nuclear against cytoplasmic fraction","endogenous HDAC3, O15379",4.5 times higher
B2,binding result,endogenous HDAC1,no binding
same,HDAC activity associated with the GST pull-down from GST-HDAC4 depleted lysate against GST depleted lysate (fold reduction),"endogenous HDAC3, O15379",3
